Measurements as given in the supplement of paper PMC10065799, “High-throughput profiling of sequence recognition by tyrosine kinases and SH2 domains using bacterial peptide display” (eLife, 2023).

Experiments:
[1] = target: SHP2-C SH2; test: SH2 binding enrichment of the phosphorylated peptide, bacterial display (enrichment ratio); higher = better substrate or ligand; peptides without Tyr show the background
[2] = target: Grb2 SH2 (UniProt P62993); test: as above
[3] = target: c-Src SH2; test: as above
[4] = tested on: c-Src; test: phosphorylation enrichment, bacterial display (enrichment ratio); higher = better substrate or ligand; peptides without Tyr show the background
[5] = target: FGFR3 (UniProt P22607); test: as above
[6] = tested on: Fer (mouse); test: as above
[7] = tested on: c-Abl (mouse); test: as above
[8] = target: EPHB2 (UniProt P29323); test: as above
[9] = target: Fes (UniProt P07332); test: as above
[10] = target: MERTK (UniProt Q12866); test: as above
[11] = tested on: AncSZ; test: as above
[12] = target: EPHB1 (UniProt P54762); test: as above
[13] = target: Jak2 (UniProt O60674); test: as above
[14] = target: Hck (UniProt P08631); test: as above
[15] = target: Fyn (UniProt P06241); test: as above
[16] = target: FGFR1 (UniProt P11362); test: as above
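Throughout, for SH2 binding enrichment of the phosphorylated peptide, bacterial display: peptide library displayed on the E. coli surface as eCPX fusions, selected cells deep-sequenced, score is each peptide's frequency after selection divided by its frequency in the input.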
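Throughout, for phosphorylation enrichment, bacterial display: 11-residue human phosphosite peptides and single-mutation variants displayed on the E. coli surface, counted by deep sequencing, each peptide's frequency after selection divided by its frequency in the unselected input library; frequency after pTyr selection over input frequency; kinase dosed for 20-30% of maximal phosphorylation in three min.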

Sequence of Fyn (P06241 whole entry, looked up): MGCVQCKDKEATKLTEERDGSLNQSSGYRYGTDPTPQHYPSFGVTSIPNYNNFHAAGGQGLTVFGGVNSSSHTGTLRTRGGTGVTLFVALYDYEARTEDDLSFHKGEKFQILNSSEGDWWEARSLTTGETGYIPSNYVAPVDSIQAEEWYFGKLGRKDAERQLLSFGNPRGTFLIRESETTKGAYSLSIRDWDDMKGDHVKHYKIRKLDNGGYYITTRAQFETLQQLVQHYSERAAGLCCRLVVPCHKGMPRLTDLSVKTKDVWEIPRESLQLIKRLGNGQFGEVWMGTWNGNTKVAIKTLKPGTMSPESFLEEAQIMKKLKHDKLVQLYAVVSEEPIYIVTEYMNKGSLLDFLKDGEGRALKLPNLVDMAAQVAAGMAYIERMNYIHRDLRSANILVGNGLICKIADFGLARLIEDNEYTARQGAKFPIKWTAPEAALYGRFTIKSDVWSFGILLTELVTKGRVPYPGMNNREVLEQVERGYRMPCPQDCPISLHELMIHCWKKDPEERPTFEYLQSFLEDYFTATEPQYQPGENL
Sequence of EPHB2 (P29323 whole entry, looked up): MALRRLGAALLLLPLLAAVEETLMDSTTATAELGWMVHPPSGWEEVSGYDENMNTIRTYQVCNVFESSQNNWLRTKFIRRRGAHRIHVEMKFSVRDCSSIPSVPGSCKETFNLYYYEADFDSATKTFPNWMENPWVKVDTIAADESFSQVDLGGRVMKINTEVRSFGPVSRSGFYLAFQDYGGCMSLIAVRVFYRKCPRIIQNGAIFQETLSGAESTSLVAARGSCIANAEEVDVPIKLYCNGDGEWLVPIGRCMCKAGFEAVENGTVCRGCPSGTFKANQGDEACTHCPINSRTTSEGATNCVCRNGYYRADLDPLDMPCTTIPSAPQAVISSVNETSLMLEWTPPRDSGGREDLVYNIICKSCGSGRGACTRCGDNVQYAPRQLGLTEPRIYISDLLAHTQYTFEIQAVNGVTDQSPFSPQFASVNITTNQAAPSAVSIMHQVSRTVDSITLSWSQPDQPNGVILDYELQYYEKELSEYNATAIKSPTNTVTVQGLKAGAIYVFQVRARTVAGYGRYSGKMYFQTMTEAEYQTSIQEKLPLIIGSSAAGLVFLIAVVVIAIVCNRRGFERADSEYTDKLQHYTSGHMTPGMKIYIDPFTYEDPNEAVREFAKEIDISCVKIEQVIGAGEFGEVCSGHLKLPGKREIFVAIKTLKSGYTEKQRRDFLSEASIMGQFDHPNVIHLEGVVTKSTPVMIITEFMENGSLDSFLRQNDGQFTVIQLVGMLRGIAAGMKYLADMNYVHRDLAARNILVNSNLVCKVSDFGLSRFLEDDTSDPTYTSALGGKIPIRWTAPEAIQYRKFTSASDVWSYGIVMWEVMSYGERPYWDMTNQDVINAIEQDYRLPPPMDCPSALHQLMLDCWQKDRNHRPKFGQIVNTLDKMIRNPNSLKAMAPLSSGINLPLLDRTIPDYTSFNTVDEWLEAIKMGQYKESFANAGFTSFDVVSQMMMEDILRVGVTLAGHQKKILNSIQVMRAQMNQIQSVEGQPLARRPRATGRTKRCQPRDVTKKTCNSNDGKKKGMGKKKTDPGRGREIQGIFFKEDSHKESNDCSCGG
Sequence of EPHB1 (P54762 whole entry, looked up): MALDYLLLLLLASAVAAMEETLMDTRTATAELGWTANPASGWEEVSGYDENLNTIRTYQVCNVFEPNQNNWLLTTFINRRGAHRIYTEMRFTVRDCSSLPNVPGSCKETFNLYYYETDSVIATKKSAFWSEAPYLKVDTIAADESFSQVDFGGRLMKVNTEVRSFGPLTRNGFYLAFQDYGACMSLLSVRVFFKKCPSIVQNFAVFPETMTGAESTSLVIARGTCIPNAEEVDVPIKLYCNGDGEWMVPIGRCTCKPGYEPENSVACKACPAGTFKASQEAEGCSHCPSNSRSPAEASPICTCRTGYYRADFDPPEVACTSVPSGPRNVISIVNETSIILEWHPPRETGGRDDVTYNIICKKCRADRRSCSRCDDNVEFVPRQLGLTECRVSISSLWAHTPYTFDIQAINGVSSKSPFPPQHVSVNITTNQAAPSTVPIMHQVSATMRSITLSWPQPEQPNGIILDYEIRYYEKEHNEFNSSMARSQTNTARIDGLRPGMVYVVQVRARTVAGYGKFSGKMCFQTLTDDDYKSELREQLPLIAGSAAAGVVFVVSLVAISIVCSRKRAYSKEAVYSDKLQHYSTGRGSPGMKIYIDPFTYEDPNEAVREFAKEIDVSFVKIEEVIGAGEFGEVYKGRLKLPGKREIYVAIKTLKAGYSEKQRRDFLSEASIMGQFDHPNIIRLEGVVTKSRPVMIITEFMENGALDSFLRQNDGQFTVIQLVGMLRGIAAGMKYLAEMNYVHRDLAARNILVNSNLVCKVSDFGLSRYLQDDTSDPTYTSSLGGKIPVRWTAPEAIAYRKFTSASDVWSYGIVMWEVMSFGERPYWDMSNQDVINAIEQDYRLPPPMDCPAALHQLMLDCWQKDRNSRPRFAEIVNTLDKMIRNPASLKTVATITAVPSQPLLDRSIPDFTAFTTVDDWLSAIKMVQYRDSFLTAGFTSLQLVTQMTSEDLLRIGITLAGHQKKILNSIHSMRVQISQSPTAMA
Sequence of Fes (P07332 whole entry, looked up): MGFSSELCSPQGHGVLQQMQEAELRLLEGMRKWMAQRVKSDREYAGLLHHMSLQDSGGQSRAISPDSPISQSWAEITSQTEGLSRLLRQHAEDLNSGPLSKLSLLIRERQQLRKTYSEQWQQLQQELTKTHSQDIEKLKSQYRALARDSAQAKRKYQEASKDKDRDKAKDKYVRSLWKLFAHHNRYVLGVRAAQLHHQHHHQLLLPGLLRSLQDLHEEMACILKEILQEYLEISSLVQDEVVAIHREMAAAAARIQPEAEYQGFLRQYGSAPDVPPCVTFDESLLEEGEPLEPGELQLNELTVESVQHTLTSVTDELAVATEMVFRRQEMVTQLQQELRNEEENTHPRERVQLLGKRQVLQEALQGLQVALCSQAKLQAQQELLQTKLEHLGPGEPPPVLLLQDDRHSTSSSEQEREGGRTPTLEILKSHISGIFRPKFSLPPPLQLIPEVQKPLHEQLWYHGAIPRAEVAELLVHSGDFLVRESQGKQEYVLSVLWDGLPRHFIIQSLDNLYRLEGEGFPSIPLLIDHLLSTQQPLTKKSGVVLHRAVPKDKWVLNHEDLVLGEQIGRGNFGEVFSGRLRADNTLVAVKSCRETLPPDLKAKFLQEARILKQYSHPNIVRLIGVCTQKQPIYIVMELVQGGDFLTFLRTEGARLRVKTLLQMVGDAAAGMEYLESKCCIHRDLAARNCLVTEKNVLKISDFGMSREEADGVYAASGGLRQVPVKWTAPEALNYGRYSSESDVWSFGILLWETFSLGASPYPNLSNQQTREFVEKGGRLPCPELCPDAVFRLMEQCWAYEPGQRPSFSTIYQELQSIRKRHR
Sequence of FGFR1 (P11362 whole entry, looked up, the tested form may be a part): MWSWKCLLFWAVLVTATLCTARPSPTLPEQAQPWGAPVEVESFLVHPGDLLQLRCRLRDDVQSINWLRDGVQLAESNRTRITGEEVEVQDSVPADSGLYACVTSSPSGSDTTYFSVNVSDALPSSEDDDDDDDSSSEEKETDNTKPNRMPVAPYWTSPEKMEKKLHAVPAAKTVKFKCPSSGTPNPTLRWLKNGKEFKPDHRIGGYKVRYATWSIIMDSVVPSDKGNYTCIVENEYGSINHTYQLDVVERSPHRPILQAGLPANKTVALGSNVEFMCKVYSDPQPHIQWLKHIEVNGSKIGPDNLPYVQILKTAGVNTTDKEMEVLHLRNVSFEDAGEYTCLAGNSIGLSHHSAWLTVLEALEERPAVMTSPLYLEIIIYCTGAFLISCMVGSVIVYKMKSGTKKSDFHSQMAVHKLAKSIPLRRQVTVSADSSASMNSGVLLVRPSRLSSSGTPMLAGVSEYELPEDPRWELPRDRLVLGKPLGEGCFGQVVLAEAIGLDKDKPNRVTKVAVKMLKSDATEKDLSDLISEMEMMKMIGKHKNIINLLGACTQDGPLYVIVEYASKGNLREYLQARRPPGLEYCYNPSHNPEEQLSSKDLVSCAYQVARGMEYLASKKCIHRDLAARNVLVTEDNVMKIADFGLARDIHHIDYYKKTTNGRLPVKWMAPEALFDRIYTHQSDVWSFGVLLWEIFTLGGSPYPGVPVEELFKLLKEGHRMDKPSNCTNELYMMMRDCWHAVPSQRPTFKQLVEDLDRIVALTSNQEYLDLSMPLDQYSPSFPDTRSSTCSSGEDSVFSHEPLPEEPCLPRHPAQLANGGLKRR
Sequence of Grb2 SH2 (P62993 whole entry, looked up): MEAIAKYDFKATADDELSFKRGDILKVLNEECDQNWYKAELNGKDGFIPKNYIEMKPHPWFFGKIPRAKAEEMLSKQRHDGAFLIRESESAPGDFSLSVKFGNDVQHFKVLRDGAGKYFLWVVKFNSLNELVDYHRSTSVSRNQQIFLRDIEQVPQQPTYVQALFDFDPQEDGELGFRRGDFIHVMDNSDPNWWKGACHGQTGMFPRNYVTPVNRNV
Sequence of Hck (P08631 whole entry, looked up): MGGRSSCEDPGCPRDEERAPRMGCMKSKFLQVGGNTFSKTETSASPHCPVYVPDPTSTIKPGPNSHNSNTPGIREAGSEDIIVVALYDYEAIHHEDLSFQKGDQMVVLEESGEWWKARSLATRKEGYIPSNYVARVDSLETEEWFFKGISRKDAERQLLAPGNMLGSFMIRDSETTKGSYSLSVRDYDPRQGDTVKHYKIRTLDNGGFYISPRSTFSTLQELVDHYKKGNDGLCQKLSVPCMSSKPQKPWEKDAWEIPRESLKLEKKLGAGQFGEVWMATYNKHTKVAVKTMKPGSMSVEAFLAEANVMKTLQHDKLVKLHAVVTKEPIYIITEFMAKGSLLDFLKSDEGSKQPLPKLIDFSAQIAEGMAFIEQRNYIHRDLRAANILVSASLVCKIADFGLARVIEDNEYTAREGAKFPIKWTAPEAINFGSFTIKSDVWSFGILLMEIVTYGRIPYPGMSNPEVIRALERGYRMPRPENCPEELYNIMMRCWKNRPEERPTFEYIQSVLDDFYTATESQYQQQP

Row | Sequence | SH2 binding enrichment [1] | SH2 binding enrichment [2] | SH2 binding enrichment [3] | phosphorylation enrichment [4] | phosphorylation enrichment [5] | phosphorylation enrichment [6] | phosphorylation enrichment [7] | phosphorylation enrichment [8] | phosphorylation enrichment [9] | phosphorylation enrichment [10] | phosphorylation enrichment [11] | phosphorylation enrichment [12] | phosphorylation enrichment [13] | phosphorylation enrichment [14] | phosphorylation enrichment [15] | phosphorylation enrichment [16]
1 | MNKNAYHNVTA [ST3GAL6_Y306] | 0.51 | 3.88 | 2.14 | 0.331 | 0.451 | 0.379 | 0.465 | 0.341 | 0.52 | 0.404 | 0.524 | 0.686 | 0.443 | 0.46 | 0.519 | 0.499
2 | MPAVTYTLAMR [MEGF10_Y895_P897L] | 3.33 | 0.758 | 0.726 | 0.503 | 0.73 | 0.488 | 0.724 | 0.588 | 1.03 | 0.437 | 1.08 | 0.516 | 0.845 | 0.514 | 0.53 | 0.453
3 | MSRLKYPVSQQ [BTK_Y375_I370M] | 0.78 | 1.03 | 0.608 | 0.491 | 0.621 | 0.375 | 0.573 | 0.741 | 0.706 | 0.478 | 0.573 | 0.413 | 0.54 | 0.435 | 0.473 | 0.434
4 | MSRNLYSGDYY [DDR2_Y736] | 0.612 | 0.878 | 0.845 | 5.09 | 5.43 | 2.13 | 0.821 | 14.6 | 0.788 | 9.32 | 2.08 | 11.3 | 1.64 | 5.53 | 5.12 | 7.13
5 | MSYDRYMAICH [OR2A5_Y123] | 0.605 | 0.753 | 0.79 | 0.485 | 0.672 | 0.498 | 0.695 | 0.704 | 1.03 | 0.484 | 0.909 | 0.846 | 0.895 | 0.646 | 0.511 | 0.509
6 | MTFQNYRQALF [FAM20C_Y279_G280R] | 0.792 | 1.13 | 0.51 | 0.462 | 0.57 | 0.451 | 0.657 | 0.572 | 1.02 | 0.494 | 0.909 | 0.477 | 0.867 | 0.469 | 0.576 | 0.444
7 | MTRDIYRASFF [ALK_Y1278_A1274T_YF] | 0.563 | 0.811 | 0.529 | 0.592 | 0.677 | 0.386 | 4.15 | 0.462 | 0.73 | 0.464 | 0.657 | 0.519 | 0.621 | 0.89 | 0.587 | 0.572
8 | MYDKEYYSVHN [MET_Y1234] | 0.566 | 0.873 | 0.622 | 1.65 | 4.25 | 0.727 | 1.05 | 1.13 | 1.1 | 0.813 | 2.1 | 0.965 | 2.53 | 0.903 | 0.64 | 7.14
9 | NALVQYQEMEK [BBS4_Y395_A393V] | 0.745 | 1.04 | 4.65 | 0.507 | 0.721 | 0.509 | 0.62 | 0.503 | 1.02 | 0.459 | 0.978 | 0.507 | 1.02 | 0.569 | 0.53 | 0.562
10 | NDLMEYPKQHG [ASS1_Y163_A164P] | 0.571 | 0.887 | 0.538 | 0.447 | 0.48 | 0.377 | 0.697 | 0.48 | 0.855 | 0.45 | 0.738 | 0.46 | 0.765 | 0.502 | 0.503 | 0.506
11 | NDQANYLLNTD [ADA_Y290_S291L] | 0.893 | 0.765 | 0.527 | 0.468 | 0.601 | 0.379 | 0.681 | 0.56 | 0.968 | 0.395 | 0.987 | 0.558 | 0.934 | 0.469 | 0.491 | 0.432
12 | NELTYYCCKKD [CD59_Y87] | 0.766 | 0.78 | 0.438 | 3.91 | 3.92 | 3.67 | 1.48 | 1.17 | 1.3 | 4.45 | 1.9 | 0.923 | 2.83 | 3.04 | 2.92 | 7.15
13 | NESVDYRATFP [MET_Y1003] | 0.693 | 0.748 | 0.433 | 0.418 | 0.489 | 0.454 | 0.591 | 0.463 | 0.802 | 0.422 | 0.681 | 0.421 | 0.749 | 0.484 | 0.472 | 0.427
14 | NFATLHLKIYH [PDE6B_Y219_Y219H] | 0.953 | 0.954 | 0.885 | 0.568 | 0.755 | 0.498 | 1.01 | 0.536 | 1.41 | 0.46 | 1.16 | 0.675 | 1.12 | 0.47 | 0.476 | 0.423
15 | NFDRVYIFHLR [MYOF_Y1137_YF] | 1.66 | 1.59 | 1.21 | 0.615 | 0.897 | 0.523 | 0.91 | 0.559 | 1.19 | 0.46 | 1.19 | 0.545 | 1.18 | 0.473 | 0.414 | 0.535
16 | NFYEYYVDDPL [GCHFR_Y48_P53L] | 0.726 | 0.984 | 0.856 | 4.67 | 5.52 | 6.36 | 1.04 | 7.76 | 1.74 | 7.76 | 2.81 | 6.99 | 1.64 | 2.29 | 4.96 | 7.28
17 | NGSKAYAFVHF [PABPC5_Y147_G146A_YF] | 20.4 | 1.05 | 1.65 | 0.372 | 0.763 | 0.769 | 0.618 | 0.606 | 1.02 | 0.71 | 0.97 | 0.586 | 0.796 | 0.531 | 0.442 | 0.649
